This note sets out measurements from the supplement of paper PMC7877785.

This series can be described thus: self-splicing fitness, log relative to wild type (ln ratio); higher = more splicing; Tetrahymena group I intron in knt gene, E. coli kanamycin selection, DiMSum; sequences stand for … in CUCUCU…GGAGGGAAAAGUUAUCAGGCAUGCACCUGGUAGCUAGUCUUUAAACCAAUAGAUUGCAUCGGUUUAAAAGGCAAGACCGUCAAAUUGCGGGAAAGGGGUCAACAGCCGUUCAGUACCAAGUCUCAGGGGAAACUUUGAGAUGGCCUUGCAAAGGGUAUGGUAAUAAGCUGACGGACAUGGUCCUAACCACGCAGCCAAGUCCUAAGUCAACAGAUCUUCUGUUGAUAUGGAUGCAGUUCACAGACUAAAUGUCGGUCGGGGAAGAUGUAUUCUUCUCAUAAGAUAUAGUCGGACCUCUCCUUAAUGGGAGCUAGCGGAUGAAGUGAUGCAACACUGGAGCCGCUGGGAACUAAUUUGUAUGCGAAAGUAUAUUGAUUAGUUUUGGAGUACUCGUGGUCG
In short, it runs like this: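 The eight P1ex-region nucleotides of an intron in the knt kanamycin-resistance gene on pET-22b(+) were all randomised and the library put into E. coli BL21(DE3). Six replicate transformations were grown overnight at 37°C or 30°C on LB agar with or without 25 μg/mL kanamycin, together with 100 μg/mL carbenicillin, 50 μM IPTG and 0.2% rhamnose. Colonies were pooled and amplicon-sequenced on an Illumina HiSeq 2500. Fitness from DiMSum is the error-weighted combination of wild-type-normalised replicate fold changes, kanamycin over none.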

± gives the uncertainty stated by the source.

For the sequence UCUCAGCAAUAUUACGAGAG, the “self-splicing fitness (ln)” value (30 °C) was -2.76 ± 0.11 and the “self-splicing fitness (ln)” value (37 °C) was -1.46 ± 0.11.
Consider ACAAAGCAAUAUUACGGUGG, for which the “self-splicing fitness (ln)” value reads like this: (30 °C) -3.64 ± 0.11; (37 °C) -2.07 ± 0.12.
Turning to GAGAAGCAAUAUUACGAAAA, the “self-splicing fitness (ln)” value (30 °C) was -3.53 ± 0.4 and the “self-splicing fitness (ln)” value (37 °C) is -2.2 ± 0.31.
The matching figures for CGCGAGCAAUAUUACGAUUG: -1.3 ± 0.12 and -0.15 ± 0.12.
Take CCGGAGCAAUAUUACGAUGC: the “self-splicing fitness (ln)” value (30 °C) was -2.69 ± 0.41.
Consider CGACAGCAAUAUUACGAGGC, for which the “self-splicing fitness (ln)” value is, setting by setting: (30 °C) -1.34 ± 0.13; (37 °C) -2.49 ± 0.31.
The matching figures for UUCAAGCAAUAUUACGCCAU: -3.57 ± 0.4 and -2.88 ± 0.43.
The corresponding values for AAUUAGCAAUAUUACGCAAA are -1.96 ± 0.18 and 0.00784 ± 0.17.
The corresponding values for UUGGAGCAAUAUUACGACGG are 0.664 ± 0.22 and -0.775 ± 0.29.
As to UGGCAGCAAUAUUACGGGGA, the “self-splicing fitness (ln)” value reads like this: (30 °C) -2.26 ± 0.13; (37 °C) -2.03 ± 0.14.
As to UAAGAGCAAUAUUACGAGCU, the “self-splicing fitness (ln)” value is -2.93 ± 0.3 (30 °C) and -2.6 ± 0.44 (37 °C).
As for UAAGAGCAAUAUUACGAGAA, the “self-splicing fitness (ln)” value (37 °C) was -1.68 ± 0.46.
With GCCUAGCAAUAUUACGAUAA, the “self-splicing fitness (ln)” value (30 °C) is -2.08 ± 0.12 and the “self-splicing fitness (ln)” value (37 °C) is -1.75 ± 0.14.
Take CAGGAGCAAUAUUACGCGAU: the “self-splicing fitness (ln)” value (30 °C) was -3.06 ± 0.28.
Consider GGGAAGCAAUAUUACGCGGU, for which the “self-splicing fitness (ln)” value reads like this: (30 °C) -3.44 ± 0.31; (37 °C) -1.4 ± 0.21.
The corresponding values for GGCUAGCAAUAUUACGGCGG are -1.32 ± 0.13 and -0.684 ± 0.19.
For UGGAAGCAAUAUUACGAUCC, the “self-splicing fitness (ln)” value (30 °C) is -2.44 ± 0.47 and the “self-splicing fitness (ln)” value (37 °C) was -2.1 ± 0.41.
CGAGAGCAAUAUUACGAGCU: the “self-splicing fitness (ln)” value was -4.6 ± 0.42 (30 °C) and -3.02 ± 0.47 (37 °C).
The matching figures for AUGUAGCAAUAUUACGUGCU: -1.29 ± 0.081 and -0.985 ± 0.09.
The matching figures for AUUGAGCAAUAUUACGCGGA: -4.15 ± 0.35 and -2.2 ± 0.14.
The matching figures for AGAUAGCAAUAUUACGCCCA: -1.03 ± 0.21 and -0.502 ± 0.23.
As for AAGGAGCAAUAUUACGAAUA, the “self-splicing fitness (ln)” value was -2.18 ± 0.27 (30 °C) and -2.77 ± 0.38 (37 °C).
The matching figures for CGCAAGCAAUAUUACGGGCG: -4.43 ± 0.19 and -2.76 ± 0.2.
The corresponding values for UGCGAGCAAUAUUACGUCCU are -2.35 ± 0.14 and -0.627 ± 0.15.
The corresponding values for GGCGAGCAAUAUUACGUGAG are -3.25 ± 0.18 and -2.57 ± 0.2.
GAAUAGCAAUAUUACGCGGA: the “self-splicing fitness (ln)” value (30 °C) is -1.54 ± 0.15 and the “self-splicing fitness (ln)” value (37 °C) was -1.43 ± 0.15.
Take CCGGAGCAAUAUUACGCGAG: the “self-splicing fitness (ln)” value by setting is: (30 °C) -2.87 ± 0.3; (37 °C) -1.79 ± 0.27.
The matching figures for GCAAAGCAAUAUUACGCAAG: -3.95 ± 0.19 and -2.22 ± 0.14.
The corresponding values for UCCUAGCAAUAUUACGGUUC are -3.05 ± 0.2 and -1.55 ± 0.17.
On to UUGGAGCAAUAUUACGUAUC, for which the “self-splicing fitness (ln)” value (30 °C) is -2.95 ± 0.2.
With CUCUAGCAAUAUUACGGGUU, the “self-splicing fitness (ln)” value runs as follows: (30 °C) -4.28 ± 0.32; (37 °C) -3.31 ± 0.24.
For UCCAAGCAAUAUUACGAGUG, the “self-splicing fitness (ln)” value (30 °C) is -2.75 ± 0.13 and the “self-splicing fitness (ln)” value (37 °C) is -2.03 ± 0.11.
The matching figures for GAAUAGCAAUAUUACGCGAC: -1.89 ± 0.2 and 0.34 ± 0.18.
On to ACAUAGCAAUAUUACGGGUU, for which the “self-splicing fitness (ln)” value (30 °C) is -2.41 ± 0.08 and the “self-splicing fitness (ln)” value (37 °C) was -1.77 ± 0.11.
The corresponding values for GACGAGCAAUAUUACGAUGU are -3.94 ± 0.26 and -1.38 ± 0.14.
In the case of CCGUAGCAAUAUUACGGAAC, the “self-splicing fitness (ln)” value by setting is: (30 °C) -3.54 ± 0.41; (37 °C) -2.13 ± 0.43.
The matching figures for GCUCAGCAAUAUUACGUCUC: -0.67 ± 0.12 and -0.754 ± 0.1.
The corresponding values for AGCAAGCAAUAUUACGUAAG are -2.47 ± 0.097 and -0.897 ± 0.12.
The matching figures for UGGUAGCAAUAUUACGGGAG: -3.82 ± 0.43 and -1.6 ± 0.13.
Take UGGGAGCAAUAUUACGGAAA: under “30 °C”, the “self-splicing fitness (ln)” value was -2.04 ± 0.31.
As for ACCGAGCAAUAUUACGGCAC, the “self-splicing fitness (ln)” value by setting is: (30 °C) -2.07 ± 0.14; (37 °C) -1.76 ± 0.27.
CUAGAGCAAUAUUACGGGUC: the “self-splicing fitness (ln)” value by setting is: (30 °C) -4.31 ± 0.25; (37 °C) -3.61 ± 0.39.
The matching figures for UAUCAGCAAUAUUACGCUUG: -0.489 ± 0.098 and 0.0735 ± 0.12.
With GGACAGCAAUAUUACGGUCU, the “self-splicing fitness (ln)” value (30 °C) is -3.84 ± 0.24 and the “self-splicing fitness (ln)” value (37 °C) was -1.18 ± 0.2.
The corresponding values for AAGUAGCAAUAUUACGGCCA are -0.679 ± 0.095 and 0.256 ± 0.11.
The corresponding values for CUGAAGCAAUAUUACGGAGA are -3.62 ± 0.38 and -1.97 ± 0.32.
On to GGCAAGCAAUAUUACGCAGG, for which the “self-splicing fitness (ln)” value (30 °C) is -2.1 ± 0.12 and the “self-splicing fitness (ln)” value (37 °C) was -2.29 ± 0.2.
The matching figures for GAACAGCAAUAUUACGGCUC: -0.329 ± 0.1 and -0.256 ± 0.1.
AUAUAGCAAUAUUACGCGCC: the “self-splicing fitness (ln)” value reads like this: (30 °C) -1.51 ± 0.33; (37 °C) -1.35 ± 0.41.
The corresponding values for GUUGAGCAAUAUUACGAUAA are -3.96 ± 0.46 and -1.94 ± 0.26.
Consider UCGGAGCAAUAUUACGUCAU, for which the “self-splicing fitness (ln)” value (37 °C) was -2.37 ± 0.25.
As for CAAGAGCAAUAUUACGGUAA, the “self-splicing fitness (ln)” value by setting is: (30 °C) -3.24 ± 0.23; (37 °C) -2.14 ± 0.21.
The corresponding values for CAGCAGCAAUAUUACGUCUC are -1.15 ± 0.064 and -0.898 ± 0.075.
As for GACGAGCAAUAUUACGUCUU, the “self-splicing fitness (ln)” value was -2.63 ± 0.21 (30 °C) and -1.01 ± 0.17 (37 °C).
The corresponding values for GGGGAGCAAUAUUACGUUAG are -3.73 ± 0.43 and -0.485 ± 0.33.
AUCUAGCAAUAUUACGUUCC: the “self-splicing fitness (ln)” value runs as follows: (30 °C) -1.16 ± 0.18; (37 °C) -1.47 ± 0.25.
The corresponding values for CCACAGCAAUAUUACGGUAU are -3.97 ± 0.19 and -2.6 ± 0.16.
With UGUAAGCAAUAUUACGAACG, the “self-splicing fitness (ln)” value by setting is: (30 °C) 0.23 ± 0.13; (37 °C) 0.542 ± 0.13.
The matching figures for ACCAAGCAAUAUUACGAACA: -2.91 ± 0.16 and -0.543 ± 0.089.
The corresponding values for GGUUAGCAAUAUUACGCGUA are -0.642 ± 0.091 and -0.174 ± 0.083.
As for GUGGAGCAAUAUUACGUGCU, the “self-splicing fitness (ln)” value is, setting by setting: (30 °C) -3.68 ± 0.2; (37 °C) -3.09 ± 0.4.
Take GUCAAGCAAUAUUACGGCAA: the “self-splicing fitness (ln)” value is, setting by setting: (30 °C) -2.06 ± 0.15; (37 °C) -1.01 ± 0.094.
The matching figures for UUCUAGCAAUAUUACGGAUU: -2.7 ± 0.15 and -0.761 ± 0.14.
On to GCGGAGCAAUAUUACGGGUG, for which the “self-splicing fitness (ln)” value (37 °C) was -1.36 ± 0.34.
As to GAGCAGCAAUAUUACGUUAC, the “self-splicing fitness (ln)” value is, setting by setting: (30 °C) -2.55 ± 0.14; (37 °C) -1.75 ± 0.13.
The corresponding values for CUCAAGCAAUAUUACGUCGC are -4.2 ± 0.39 and -2.27 ± 0.33.
With AUGGAGCAAUAUUACGGAUG, the “self-splicing fitness (ln)” value (37 °C) is -2.29 ± 0.37.
Take UAAUAGCAAUAUUACGCCUC: the “self-splicing fitness (ln)” value reads like this: (30 °C) -2.77 ± 0.35; (37 °C) -1.53 ± 0.38.
Consider AGGAAGCAAUAUUACGGUCC, for which the “self-splicing fitness (ln)” value reads like this: (30 °C) -1.54 ± 0.23; (37 °C) -1.05 ± 0.4.
The corresponding values for UCAGAGCAAUAUUACGCGCA are -1.19 ± 0.2 and -1.69 ± 0.29.
The matching figures for GUCUAGCAAUAUUACGGUGU: -0.578 ± 0.046 and -0.0594 ± 0.06.
The matching figures for UAACAGCAAUAUUACGGUCC: -2.94 ± 0.15 and -1.99 ± 0.19.
Regarding CUCGAGCAAUAUUACGAUCG, for the setting “37 °C”, the “self-splicing fitness (ln)” value is -1.71 ± 0.28.
CGUCAGCAAUAUUACGUCUC: the “self-splicing fitness (ln)” value was -2.87 ± 0.24 (30 °C) and -0.999 ± 0.14 (37 °C).
The matching figures for AUGAAGCAAUAUUACGAUUG: -2.6 ± 0.13 and -1.24 ± 0.14.
The corresponding values for ACAAAGCAAUAUUACGAUUU are -0.651 ± 0.066 and -0.399 ± 0.078.
The matching figures for UAUGAGCAAUAUUACGUCAU: -3.16 ± 0.2 and -2.38 ± 0.23.
GAGCAGCAAUAUUACGUGCC: the “self-splicing fitness (ln)” value is, setting by setting: (30 °C) -1.58 ± 0.41; (37 °C) -1.34 ± 0.26.
